Reference: publication PMC7857400 (2020)

Legend:
[1] = target: T1, SARS-CoV-2 spike protein receptor binding domain (RBD) (SARS-CoV-2, UniProt P0DTC2 319-541); assay: SPR
[2] = target: T1, SARS-CoV-2 spike protein receptor …; assay: SPR; remark: listed apart in the source

B1: Nb21 (VHH)
VHH: QVQLVESGGGLVQAGGSLRLSCAVSGLGAHRVGWFRRAPGKEREFVAAIGANGGNTNYLDSVKGRFTISRDNAKNTIYLQMNSLKPQDTAVYYCAARDIETAEYTYWGQGTQVTVSS
- koff [1]: < 1e-06 s⁻¹
- Kd [2]: < 1 pM
